The text below walks through data of patent publication US20210206832A1 (Regeneron, published 2021).

For experiment [1], the target named is T1, recombinant VEGF MiniTrap (dimer) MT5 (human).
T1 construct: also called VEGF MiniTrap 5
T1 chain: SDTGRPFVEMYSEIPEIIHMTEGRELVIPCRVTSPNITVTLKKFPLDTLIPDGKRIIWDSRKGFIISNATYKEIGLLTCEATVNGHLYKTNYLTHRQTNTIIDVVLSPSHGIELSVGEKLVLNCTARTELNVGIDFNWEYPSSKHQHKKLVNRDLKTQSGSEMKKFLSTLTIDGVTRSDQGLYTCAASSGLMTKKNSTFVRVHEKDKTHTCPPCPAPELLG
The experiment can be described thus: affinity chromatography on the mAb1 column, repeated run, 19.6 mg MT5 loaded.

In experiment [2] the target is T1, recombinant VEGF MiniTrap (dimer) MT5. The experiment can be described thus: affinity chromatography on the mAb1 column, repeated run, 19.7 mg MT5 loaded.

B1: mAb1 (a mouse anti-VEGFR1 mAb human IgG1) (antibody)
heavy: not shown
light: DIQMTQSPSSLSASLGGKVTITCTTSQDSNNYIAWYQHKPGKGPRLLIHYASTLQPGIPSRFSGSGSGRDYSFSISNLEPEDIATYFCLQYDYLWTFGGGTKLELKRTVAAPSVFIFPPSDEQLKSGTASVVCLLNNFYPREAKVQWKVDNALQSGNSQESVTEQDSKDSTYSLSSTLTLSKADYEKHKVYACEVTHQGLSSPVTKSFNRGEC
Take B1: the entries for the “Eluate” value in experiment [1] and in experiment [2] were 2 mg and 1.8 mg, respectively.
